Test results as given in the RNAGym collection of RNA variant scans (doi:10.7554/elife.80360).

B1: CPEB3 Ribozyme (parent)
chain: GGGGGCCACAGCAGAAGCGUUCACGUCGCGGCCCCUGUCAGAUUCUGGUGAAUCUGCGAAUUCUGCUGU

Variants of: B1
Experiment: self-cleavage, relative activity (ratio to wild type); higher = more cleavage; co-transcriptional

Row | Variant | self-cleavage
1 | A13C U62G | 0.355
2 | A13C U64A | 0.948
3 | A13C U64G | 0.922
4 | A13C U67G | 0.824
5 | A13C U69G | 0.96
6 | A13G A15C | 0.196
7 | A13G A15G | 0.82
8 | A13G A23C | 0.781
9 | A13G A40G | 0.831
10 | A13G A40U | 0.455
11 | A13G A42U | 0.74
12 | A13G A51C | 0.874
13 | A13G A52C | 0.827
14 | A13G A52G | 1.02
15 | A13G A59C | 0.522
16 | A13G A59G | 0.946
17 | A13G A59U | 0.57
18 | A13G A60C | 0.268
19 | A13G A60G | 0.66
20 | A13G A60U | 0.282
21 | A13G C18A | 0.0625
22 | A13G C18G | 0.169
23 | A13G C22G | 0.199
24 | A13G C24A | 0.54

Row | Variant | self-cleavage
25 | A13G C24U | 0.712
26 | A13G C27U | 0.168
27 | A13G C29A | 0.42
28 | A13G C29G | 0.126
29 | A13G C32A | 0.773
30 | A13G C32G | 0.318
31 | A13G C32U | 0.916
32 | A13G C33G | 0.638
33 | A13G C34A | 0.797
34 | A13G C34G | 0.293
35 | A13G C34U | 1.02
36 | A13G C35G | 0.446
37 | A13G C39G | 0.758
38 | A13G C39U | 0.8
39 | A13G C45A | 0.889
40 | A13G C45U | 0.917
41 | A13G C54A | 0.642
42 | A13G C54G | 0.772
43 | A13G C57G | 0.36
44 | A13G C57U | 0.358
45 | A13G C63A | 0.26
46 | A13G C63G | 0.504
47 | A13G C63U | 0.842
48 | A13G C66G | 0.489

Row | Variant | self-cleavage
49 | A13G G14A | 0.276
50 | A13G G14C | 0.255
51 | A13G G14U | 0.146
52 | A13G G17A | 0.0885
53 | A13G G17U | 0.214
54 | A13G G19A | 0.155
55 | A13G G19U | 0.0922
56 | A13G G25A | 0.186
57 | A13G G25C | 0.135
58 | A13G G25U | 0.118
59 | A13G G28C | 0.18
60 | A13G G28U | 0.15
61 | A13G G30A | 0.856
62 | A13G G30C | 0.711
63 | A13G G31A | 0.775
64 | A13G G31U | 0.555
65 | A13G G37A | 0.172
66 | A13G G37C | 0.109
67 | A13G G37U | 0.184
68 | A13G G41A | 0.448
69 | A13G G47A | 0.994
70 | A13G G47U | 1.06
71 | A13G G48A | 0.968
72 | A13G G48U | 0.914

Row | Variant | self-cleavage
73 | A13G G50A | 0.896
74 | A13G G50C | 0.881
75 | A13G G50U | 0.973
76 | A13G G56A | 0.934
77 | A13G G56C | 0.421
78 | A13G G56U | 0.742
79 | A13G G58A | 0.902
80 | A13G G58C | 0.878
81 | A13G G58U | 1.01
82 | A13G G65U | 0.561
83 | A13G G68A | 1.01
84 | A13G U20G | 0.0546
85 | A13G U21A | 0.966
86 | A13G U21C | 0.74
87 | A13G U21G | 0.355
88 | A13G U26C | 0.78
89 | A13G U26G | 0.935
90 | A13G U36A | 0.222
91 | A13G U36C | 0.816
92 | A13G U38A | 0.898
93 | A13G U38C | 0.938
94 | A13G U38G | 0.149
95 | A13G U43C | 0.785
96 | A13G U43G | 0.539

Row | Variant | self-cleavage
97 | A13G U44G | 0.826
98 | A13G U46A | 1.02
99 | A13G U46G | 0.979
100 | A13G U49A | 0.95
101 | A13G U53A | 0.87
102 | A13G U53C | 0.628
103 | A13G U53G | 0.737
104 | A13G U55C | 0.621
105 | A13G U55G | 0.51
106 | A13G U61C | 0.402
107 | A13G U61G | 0.53
108 | A13G U62A | 0.622
109 | A13G U62C | 0.449
110 | A13G U62G | 0.445
111 | A13G U64A | 0.843
112 | A13G U64C | 1
113 | A13G U64G | 0.745
114 | A13G U67A | 0.889
115 | A13G U67C | 0.94
116 | A13G U69C | 1.04
117 | A13G U69G | 1.01
118 | A13U A15C | 0.354
119 | A13U A15G | 0.79
120 | A13U A15U | 0.56

Row | Variant | self-cleavage
121 | A13U A16C | 0.14
122 | A13U A16G | 0.589
123 | A13U A16U | 0.34
124 | A13U A23G | 0.618
125 | A13U A23U | 0.963
126 | A13U A40G | 0.607
127 | A13U A42G | 0.645
128 | A13U A42U | 0.494
129 | A13U A51C | 0.828
130 | A13U A51G | 0.837
131 | A13U A51U | 0.858
132 | A13U A52C | 0.8
133 | A13U A52G | 0.902
134 | A13U A52U | 0.776
135 | A13U A59C | 0.33
136 | A13U A59G | 0.784
137 | A13U A60G | 0.398
138 | A13U A60U | 0.356
139 | A13U C18G | 0.119
140 | A13U C18U | 0.19
141 | A13U C24A | 0.301
142 | A13U C24U | 0.364
143 | A13U C27A | 0.207
144 | A13U C29A | 0.178

Row | Variant | self-cleavage
145 | A13U C29G | 0.0771
146 | A13U C29U | 0.138
147 | A13U C32A | 0.542
148 | A13U C32G | 0.229
149 | A13U C33A | 0.759
150 | A13U C33G | 0.333
151 | A13U C34A | 0.704
152 | A13U C34G | 0.309
153 | A13U C35G | 0.258
154 | A13U C39A | 0.394
155 | A13U C39G | 0.508
156 | A13U C45A | 0.764
157 | A13U C45G | 0.814
158 | A13U C54A | 0.29
159 | A13U C54U | 0.729
160 | A13U C57G | 0.226
161 | A13U C57U | 0.308
162 | A13U C63A | 0.317
163 | A13U C63G | 0.294
164 | A13U C66A | 0.323
165 | A13U C66U | 0.583
166 | A13U G14A | 0.328
167 | A13U G14U | 0.437
